Tests used:
[1] = target: T1, unphosphorylated Aurora-A 1-403 (UniProt O14965 1-403); assay: pull-down
T1 sequence: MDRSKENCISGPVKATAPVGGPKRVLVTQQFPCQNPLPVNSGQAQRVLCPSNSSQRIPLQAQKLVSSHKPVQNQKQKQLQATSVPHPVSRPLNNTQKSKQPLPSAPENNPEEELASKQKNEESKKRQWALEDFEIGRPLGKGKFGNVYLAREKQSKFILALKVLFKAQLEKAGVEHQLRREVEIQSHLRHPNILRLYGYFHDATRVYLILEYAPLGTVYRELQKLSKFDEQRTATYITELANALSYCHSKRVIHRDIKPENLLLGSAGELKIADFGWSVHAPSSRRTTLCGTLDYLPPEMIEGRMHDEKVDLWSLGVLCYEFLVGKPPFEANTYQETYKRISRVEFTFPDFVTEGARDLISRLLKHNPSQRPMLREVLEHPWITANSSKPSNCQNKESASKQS

Aurora-A kinase domain = target: T2, Aurora-A kinase domain (UniProt O14965 122-403, C290A;K339C;C393A); assay: EMSA
T2 sequence: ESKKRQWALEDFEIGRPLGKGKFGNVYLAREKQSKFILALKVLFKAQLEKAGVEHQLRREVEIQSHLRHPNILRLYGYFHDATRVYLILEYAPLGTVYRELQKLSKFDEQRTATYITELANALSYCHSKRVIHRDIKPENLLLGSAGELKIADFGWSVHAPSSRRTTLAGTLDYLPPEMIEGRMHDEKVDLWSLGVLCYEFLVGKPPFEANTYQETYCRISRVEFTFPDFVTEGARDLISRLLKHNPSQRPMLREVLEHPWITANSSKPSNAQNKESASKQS

[2] = target: T3, Aurora-A 1-403, unphosphorylated (UniProt O14965 1-403); assay: pull-down
T3 sequence: T1 sequence

B1: 3xFLAG-MYCN 1-137 (domain or fragment)
chain: MPSCSTSTMPGMICKNPDLEFDSLQPCFYPDEDDFYFGGPDSTPPGEDIWKKFELLPTPPLSPSRGFAEHSSEPPSWVTEMLLENELWGSPAEEDAFGLGGLGGLTPNPVILQDCMWSGFSAREKLERAVSEKLQHG
Q: Does B1 bind [1]?
A: Result: binds

B2: UGhigh RNA, Cy5 (ssRNA)
RNA: UGCUGGGAUGGUCAUGGUGGGUGACCCUGGGAUGGCCGCGGUGGGUGACCCUGGAAUGGU
Q: Does B2 bind (Aurora-A kinase domain)?
A: Result: binds

B3: UGhigh RNA, biotin (ssRNA)
RNA: B2 RNA
Q: Does B3 bind [2]?
A: Result: binds
